The text below walks through data of patent US20040253577A1 (SCHERING, published 2004).

This data set deals with the molecule itself. In words: size exclusion chromatography (Superdex 75), self-association.

B1: HCV NS3 helicase subdomain I (181-324,R257E) mutant (enzyme)
chain: SPVFTDNSSPPAVPQSFQVAHLHAPTGSGKSTKVPAAYAAQGYKVLVLNPSVAATLGFGAYMSKAHGVDPNIRTGVETITTGSPITYSTYGKFLADGGCSGGAYDIIICDECHSTDATSILGIGTVLDQAETAGARLVVLATAT
notes: also called subdomain I mutant; product of pNS3(181-324,R257E)
For B1, the binding result is “no binding (tested: 6 mg/ml)”.
